Assay results: patent US11945858B2, “Antibodies and antibody fragments against HNAV1.7 channel and their use in pain and cancer indications” (NATIONAL RESEARCH COUNCIL OF CANADA, priority 2018, dated 2024)
Several values for one entry are separate records, joined by “and”; a condition that tells them apart may be missing. Equal values may be shown once.

B1: DI-48: VHH from FC5DIE3IR llama immune library; SEQ ID NO: 59 (protein)
VHH: QAQVQLVESGGGLVQAGGSLRLSCAASGRTFSTYVMGWFRQTPGKEREFVAGFSWSGDYAIYVNSVKGRFTISRDNAKNTVYLQMNSLRPEDTAVYYCAARQRGGYSGRSYYTGRNDYEYWGQGTQVTVSS
modifications: DI-48
B2: DI-16: VHH from FC5DIE3IR llama immune library; SEQ ID NO: 49; clone DI-11 has identical sequence (protein)
VHH: QAQVQLVESGGGLVQAGGSLRLSCAASGRTVSSYTMGWFRQAPGKERRFVATVNSSGRGTHYADSVKGRFTISRDNAKNTVYLQMNSLKPEDTAVYYCAAAPYPDGSLGPGYDYWGQGTQVTVSS
modifications: DI-16
B3: DI-28: VHH from FC5DIE3IR llama immune library; SEQ ID NO: 54 (protein)
VHH: QAQVQLVESGGGLVQAGGSLRLSCAASGRTFSSSGMGWFRQAPGKDRELVAGISWSGDSAYYANSVAGRFTISRDNINNTVYLQMNSLKPEDTAVYYCAARQGGRNYATSPREYDYWGQGTQVTVSS
modifications: DI-28
B4: DI-4: VHH from FC5DIE3IR llama immune library; SEQ ID NO: 47 (protein)
VHH: QVQLVESGGGLVQPGGSLRLSCAASGFTFSNYWMYWVRQAPGKGLERVSSIYISGGNTYYADSVKGRFTISRDNAKNTLYLQMNSLKSEDTAVYYCVKGDTFGGMDYWGKGTQVTVSS
modifications: DI-4

How the values were obtained:
[1] = tested on: CFA-induced thermal hyperalgesia; experiment: Hargreaves Model of Hyperalgesia in rats; format: in vivo, rat
Protocol: Hargreaves Model of Hyperalgesia in rats. Rats aged 4-6 weeks (weight range, 180-220 g) were used for intraplantar (ipl) administrations of various antibodies and evaluation of their efficacy in the Hargreaves model of inflammatory pain. Chronic inflammatory pain is induced by injecting a low volume (50 μl) of complete Freund's adjuvant (CFA; heat-killed M. tuberculosis—Sigma, St. Louis, Mo.—suspended in oil:saline 2:1 emulsion) into the right hind paw. The paw withdrawal latency in response to the application of a radiant stimulus onto the plantar surface of both right and left paw was measured using the plantar Analgesia Meter equipment for paw stimulation (IITC Life Science, Woodland Hills, Calif.). The time taken by the animal to respond by licking or flicking its paw is interpreted as positive response (paw withdrawal latency). After 48 h of the CFA injection, the baseline for latency paw withdrawal was measured and the mAbs tested. […] A cut-off time (20 sec) is established at the end of which the heat source shuts off automatically to avoid tissue damage. Animals were kept (randomized) one per cage and staff performing pain experiments are blinded to the content of injectable compounds. Percentage of maximum possible effect (% MPE) was calculated using the formula % MPE=(Test Latency−Baseline Latency)×100/(Cut-off−Baseline Latency).

[2] = tested on: OD1-evoked Nav1.7-mediated spontaneous pain behaviours; format: in vivo, mouse; settings: 100 μg, injected 60 minutes prior to OD1; 20 min after the injection
[3] = tested on: FC5; experiment: Surface Plasmon Resonance for VHH antibodies, immobilized FC5; format: binding; settings: SPR; 25 C
Protocol: (§1) Surface Plasmon Resonance for VHH antibodies. For SPR experiments, IMAC-purified VHHs DI-D, DI-4, DI-16, DI-28 and DI-48 were passed through a Superdex 75 (GE Healthcare) column for SEC purification in HBS-EP+buffer (10 mM HEPES, pH 7.4, containing 150 mM NaCl, 3 mM EDTA and 0.05% P20), connected to an AKTAPurifier (GE Healthcare) at a flow rate of 1 ml/min. Monomeric VHH fractions were collected and protein concentration determined by measuring A280 measurement. Using a Biacore T200 instrument (GE Healthcare), approximately 500-1000 RUs of FC5DIE3IR, FC5 and an irrelevant VHH (2A3-H4) were immobilized on a CM5 Series S sensor chip (GE Healthcare) at pH 4.0 using standard amine coupling according to the manufacturer's instructions (GE Healthcare). […] Surfaces were regenerated by washing with a 120 s pulse of 10 mM glycine pH 1.5. Data were analyzed with Biacore T200 Software v 3.0 and affinities determined using steady state binding or a 1:1 binding model.

[4] = tested on: 2A3-H4; experiment: Surface Plasmon Resonance for VHH antibodies, immobilized irrelevant VHH 2A3-H4; format: binding; settings: SPR; 25 C
Protocol: as §1

[5] = molecular target: T1, FC5DIE3IR (Homo sapiens, UniProt Q15858); experiment: Surface Plasmon Resonance for VHH antibodies, immobilized FC5DIE3IR; format: binding; settings: for Kd / Rmax (RU) / ka / kd: immobilized FC5DIE3IR; for ka / kd: 25 C
T1 construct: The supernatant was collected and loaded on a 5 ml MabSelect™ SuRe™ column; made in house; host or cells: CHO-3E7 (transient, pTT5 vector), purified from supernatant
Protocol: as §1

Chain of FC5 (as listed by the source): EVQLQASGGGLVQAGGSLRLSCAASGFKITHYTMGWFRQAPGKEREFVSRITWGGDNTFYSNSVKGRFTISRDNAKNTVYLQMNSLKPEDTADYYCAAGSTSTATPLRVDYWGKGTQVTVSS

| Molecule | Binding to immobilized FC5 (comment, in words) [3] | Binding to immobilized 2A3-H4 (comment, in words) [4] | Kd [5] [nM] | Rmax (RU) [5] [RU] | ka [5] [M⁻¹ s⁻¹] | kd [5] [s⁻¹] | other results |
| --- | --- | --- | --- | --- | --- | --- | --- |
| TLESEEDFRKYFYYLEGSKDALLCGFSTDS (Peptide #2 = 30 amino acid sequence located on loop3 of the D1 domain of the Nav1.7 polypeptide) [P2] | – | – | – | – | – | – | Latency paw withdrawal time ([1]; peptide 375 μg co-injected with 3A8 75 μg, intraplantar (FIG. 18)): 6.76 ± 0.32 s; 3A8-induced reversal of hyperalgesia (% MPE) ([1]; peptide 375 μg co-injected with 3A8 75 μg, intraplantar, 4 h): 13.49%±2.62 |
| CC(=O)Nc1cccc(Nc2ncnc(N3CCC(OCc4ccc(OC(F)(F)F)cc4)CC3)n2)c1C [TC-N1752, reference compound] | – | – | – | – | – | – | Time spent in pain behaviors (saline plus OD1 = 100%) [2]: 51.62%±4.85; Percentage of effect after injection (on left paw withdrawal) ([1]; 100 μg intraplantar, 0 h): 0%; Latency paw withdrawal ([1]; 100 μg intraplantar, 1 h): 8.15 ± 1.6 s and 8.15 ± 2.60 s; Percentage of effect after injection (on left paw withdrawal) ([1]; 100 μg intraplantar, 1 h): 37.01%; Latency paw withdrawal ([1]; 100 μg intraplantar, 2 h): 11.17 ± 1.19 s; Percentage of effect after injection (on left paw withdrawal) ([1]; 100 μg intraplantar, 2 h): 44.77%; Latency paw withdrawal ([1]; 100 μg intraplantar, 4 h): 11.90 ± 0.99 s; Percentage of effect after injection (on left paw withdrawal) ([1]; 100 μg intraplantar, 4 h): 49.05%; Percentage of maximum possible effect (% MPE) ([1]; 100 μg intraplantar, 4 h (FIG. 27B)): 46.47%±7.14 |
| B1 | No binding | Very low | – | – | – | – | Binding to immobilized FC5DIE3IR (comment, in words) ([5]; SPR): Low affinity, |
| B2 | No binding | No binding | 4.3 | 317.9 | 619000 | 0.00266 | – |
| B3 | No binding | No binding | 4.4 | 318.3 | 461000 | 0.00205 | – |
| B4 | No binding | Very low non- | – | 469.2 | – | – | – |
